Here are results for 19 molecules from patent publication US20120253017A1 (published 2012).

Read-outs that look alike come from different tables or passages of the source.

Assay [1] concerns the target Myosin Light Chain (on streptavidin chip; vMLC1-sulfotag). Nature of the assay: BIAcore, bad fit.
Assay [2] concerns the target T1, human c-kit (recombinant, on BIAcore chip or beads) (human, UniProt P10721 26-524).
T1 construct: extracellular domain; also called hcKIT; biotinylated human c-kit
The assay is described as follows: BIAcore, c-kit on SA chip. The method, then: All unique dAb clones were expressed in 50 ml cultures (OnEX plus carbenicillin) overnight at 37° C. and purified on protein A (VH dAbs) or protein L (VK dAbs). Purified dAbs were passed over a SA BIAcore chip coated with either human or mouse c-kit at 1 μM to identify those dAbs that bound specifically to either human or murine c-kit.

Assay [3] has as its target T1, human c-kit (recombinant, on BIAcore …). The assay is described as follows: BIAcore, dAb at 1000 and 500 nM. The method, then:
Unique dAbs were expressed as bacterial supernatants in 2.5 L shake flasks in Onex media at 37° C. for 24 hrs at 250 rpm. dAbs were purified from the culture media by absorption to protein A or L agarose followed by elution with 10 mM glycine pH2.0.

The target of assay [4] is T2, human ventricular myosin light chain 1, GlySer(His)6 tag (human, UniProt P08590 1-195, limits assumed).
T2 construct: also called human vMLC-1; vMLC1-6xHIS
T2 sequence (P08590 other isoform, or with tags, fused parts or gaps limits assumed): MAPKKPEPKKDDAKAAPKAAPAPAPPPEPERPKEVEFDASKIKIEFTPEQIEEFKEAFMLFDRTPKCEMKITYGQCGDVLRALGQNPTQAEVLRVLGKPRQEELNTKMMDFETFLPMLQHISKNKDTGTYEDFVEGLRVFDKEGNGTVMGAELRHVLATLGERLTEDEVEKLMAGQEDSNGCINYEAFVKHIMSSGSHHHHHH
Nature of the assay: BIAcore, vMLC-1 immobilised. The method, then: (§1) Affinity of all 8 humanised mAbs was determined by BIAcore as described above.

For assay [5], the target named is T3, mouse ventricular myosin light chain 1, GlySer(His)6 tag (mouse, UniProt P09542 1-204).
T3 construct: also called mouse vMLC-1
T3 sequence (P09542 other isoform, or with tags, fused parts or gaps): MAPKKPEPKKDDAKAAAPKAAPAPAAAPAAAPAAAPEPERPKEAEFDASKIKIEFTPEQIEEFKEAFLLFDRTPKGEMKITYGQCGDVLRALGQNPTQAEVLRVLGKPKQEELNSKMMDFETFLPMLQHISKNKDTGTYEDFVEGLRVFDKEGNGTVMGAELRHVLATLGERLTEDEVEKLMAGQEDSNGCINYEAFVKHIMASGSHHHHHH
Nature of the assay: BIAcore, vMLC-1 immobilised. As to the method: as §1

In assay [6] the target is T2, human ventricular myosin light chain 1, …. Nature of the assay: BIAcore, vMLC-1 immobilised. The source holds these as a separate data set.
Assay [7] addresses T3, mouse ventricular myosin light chain 1, …. Nature of the assay: BIAcore, vMLC-1 immobilised. The source holds these as a separate data set.

T1 sequence (P10721 26-524): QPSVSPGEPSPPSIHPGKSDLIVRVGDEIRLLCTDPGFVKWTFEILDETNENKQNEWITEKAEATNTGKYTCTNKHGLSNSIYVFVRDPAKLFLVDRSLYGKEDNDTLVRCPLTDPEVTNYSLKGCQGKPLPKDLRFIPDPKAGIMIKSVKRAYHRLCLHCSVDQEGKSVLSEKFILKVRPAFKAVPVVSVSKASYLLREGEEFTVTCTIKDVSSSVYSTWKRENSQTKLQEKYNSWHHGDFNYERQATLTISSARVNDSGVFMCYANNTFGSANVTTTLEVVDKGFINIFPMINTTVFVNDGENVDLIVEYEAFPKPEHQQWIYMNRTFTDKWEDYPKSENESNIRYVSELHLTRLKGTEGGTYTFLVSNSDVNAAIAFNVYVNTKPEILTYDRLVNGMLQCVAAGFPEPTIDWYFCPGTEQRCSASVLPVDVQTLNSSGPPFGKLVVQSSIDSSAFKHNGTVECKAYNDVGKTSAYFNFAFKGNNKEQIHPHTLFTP
Sequence of Myosin Light Chain (on streptavidin chip; vMLC1-sulfotag) (chain, as listed by the source): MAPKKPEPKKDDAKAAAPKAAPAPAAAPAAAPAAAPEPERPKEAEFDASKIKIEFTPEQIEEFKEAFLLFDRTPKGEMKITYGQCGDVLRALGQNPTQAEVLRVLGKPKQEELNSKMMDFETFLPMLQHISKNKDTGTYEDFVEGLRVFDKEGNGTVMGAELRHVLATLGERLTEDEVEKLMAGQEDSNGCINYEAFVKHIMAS

B1: DMS5056 (chimeric MLC mAb-cKIT dAb, DOM28m-107) (bispecific antibody)
heavy: not shown
light: DIVMSQSPSSLAVSAGDKVTMSCKSSQSLLYSRTRKNYLAWYQQKPGQSPKLLIYWASTRQSGVPDRFTGSGSGTDFTLTISSVQAEDLAVYYCKQSYNLFTFGSGTKLEIKRTVAAPSVFIFPPSDEQLKSGTASVVCLLNNFYPREAKVQWKVDNALQSGNSQESVTEQDSKDSTYSLSSTLTLSKADYEKHKVYACEVTHQGLSSPVTKSFNRGEC
In turn, B1 yielded a Kd in assay [1] of 0.048 nM.

B2: DMS5058 (chimeric MLC mAb-cKIT dAb, DOM28m-112) (bispecific antibody)
heavy: not shown
light: DIVMSQSPSSLAVSAGDKVTMSCKSSQSLLYSRTRKNYLAWYQQKPGQSPKLLIYWASTRQSGVPDRFTGSGSGTDFTLTISSVQAEDLAVYYCKQSYNLFTFGSGTKLEIKRTVAAPSVFIFPPSDEQLKSGTASVVCLLNNFYPREAKVQWKVDNALQSGNSQESVTEQDSKDSTYSLSSTLTLSKADYEKHKVYACEVTHQGLSSPVTKSFNRGEC
Consider B2, for which the equilibrium dissociation constant (Kd) in assay [1] came out at 0.042 nM.

B3: DOM28h-110 (other)
chain: EVQLLESGGGLVQPGGSLRLSCAASGFTFRKYAMMWVRQAPGKGLEWVSTITASGGGTYYADSVKGRFTISRDNSKNTLYLQMNSLRAEDTAVYYCAKPLNQYATQFDYWGQGTLVTVSS
notes: dAb, C-terminal FLAG tag (pDOM10)
Turning to B3, the Kd in assay [2] and in assay [3] was 3300 nM each time.

B4: humanised 39-15 mAb 4-1:5-51 (antibody, human IgG1, kappa, V domains shown)
VH: EVQLVQSGAEVKKPGESLKISCKGSGYSFTTYWIHWVRQMPGKGLEWMGAIYPGDGDTRYTQNFKDQVTISADKSISTAYLQWSSLKASDTAMYYCAREGTPPFTTATFAMAYWGQGTLVTVSS
VL: DIVMTQSPDSLAVSLGERATINCKSSQSLLYSRTRKNYLAWYQQKPGQPPKLLIYWASTRQSGVPDRFSGSGSGTDFTLTISSLQAEDVAVYYCKQSYNLFTFGQGTKLEIKR
notes: human IgG1 kappa
In the case of B4, in assay [4], the dissociation constant Kd is 0.00169 nM, the koff came out at 2.65e-06 s⁻¹ and the kon was 1.57e+06 M⁻¹ s⁻¹. In assay [5], this molecule registered a Kd of 0.0153 nM, an off-rate (koff) of 2.16e-05 s⁻¹ and a kon of 1.42e+06 M⁻¹ s⁻¹.

B5: humanised 39-15 mAb 1-39:1-3 (antibody, V domains shown)
VH: QVQLVQSGAEVKKPGASVKVSCKASGYTFTTYWIHWVRQAPGQRLEWMGAIYPGDGDTRYTQNFKDRVTITRDTSASTAYMELSSLRSEDMAVYYCAREGTPPFTTATFAMAYWGQGTLVTVSS
VL: DIQMTQSPSSLSASVGDRVTITCKSSQSLLYSRTRKNYLAWYQQKPGKAPKLLIYWASTRQSGVPSRFSGSGSGTDFTLTISSLQPEDFATYYCKQSYNLFTFGQGTKLEIKR
As to B5, the koff in assay [4] turned out to be 2.17e-05 s⁻¹; in assay [5] it was 8.8e-05 s⁻¹.

B6: humanised 39-15 mAb 1-39:1-46 (antibody, V domains shown)
VH: QVQLVQSGAEVKKPGASVKVSCKASGYTFTTYWIHWVRQAPGQGLEWMGAIYPGDGDTRYTQNFKDRVTMTRDTSTSTVYMELSSLRSEDTAVYYCAREGTPPFTTATFAMAYWGQGTLVTVSS
VL: DIQMTQSPSSLSASVGDRVTITCKSSQSLLYSRTRKNYLAWYQQKPGKAPKLLIYWASTRQSGVPSRFSGSGSGTDFTLTISSLQPEDFATYYCKQSYNLFTFGQGTKLEIKR
With B6, the koff in assay [4] stood at 3.41e-05 s⁻¹; in assay [5] it was 0.000122 s⁻¹.

B7: humanised 39-15 mAb 4-1:1-3 (antibody, human IgG1, kappa, V domains shown)
VH: QVQLVQSGAEVKKPGASVKVSCKASGYTFTTYWIHWVRQAPGQRLEWMGAIYPGDGDTRYTQNFKDRVTITRDTSASTAYMELSSLRSEDMAVYYCAREGTPPFTTATFAMAYWGQGTLVTVSS
VL: DIVMTQSPDSLAVSLGERATINCKSSQSLLYSRTRKNYLAWYQQKPGQPPKLLIYWASTRQSGVPDRFSGSGSGTDFTLTISSLQAEDVAVYYCKQSYNLFTFGQGTKLEIKR
notes: human IgG1 kappa
In the case of B7, in assay [4], the affinity, expressed as Kd, was 0.00825 nM; the koff came out at 1.52e-05 s⁻¹; the kon was 1.84e+06 M⁻¹ s⁻¹. In assay [5], this molecule yielded a Kd of 0.0396 nM, a koff of 6.6e-05 s⁻¹ and a kon of 1.67e+06 M⁻¹ s⁻¹.

B8: humanised 39-15 mAb 4-1:1-8 (antibody, V domains shown)
VH: QVQLVQSGAEVKKPGASVKVSCKASGYTFTTYWIHWVRQATGQGLEWMGAIYPGDGDTRYTQNFKDRVTMTRNTSISTAYMELSSLRSEDTAVYYCAREGTPPFTTATFAMAYWGQGTLVTVSS
VL: DIVMTQSPDSLAVSLGERATINCKSSQSLLYSRTRKNYLAWYQQKPGQPPKLLIYWASTRQSGVPDRFSGSGSGTDFTLTISSLQAEDVAVYYCKQSYNLFTFGQGTKLEIKR
Turning to B8, in assay [4], the Kd came out at 0.0128 nM, the koff amounted to 1.87e-05 s⁻¹ and the kon was determined as 1.46e+06 M⁻¹ s⁻¹. In assay [5], this molecule yielded an equilibrium dissociation constant (Kd) of 0.0589 nM, a koff of 7.78e-05 s⁻¹ and a kon of 1.32e+06 M⁻¹ s⁻¹.

B9: humanised 39-15 mAb 4-1:1-46 (antibody, human IgG1, V domains shown)
VH: QVQLVQSGAEVKKPGASVKVSCKASGYTFTTYWIHWVRQAPGQGLEWMGAIYPGDGDTRYTQNFKDRVTMTRDTSTSTVYMELSSLRSEDTAVYYCAREGTPPFTTATFAMAYWGQGTLVTVSS
VL: DIVMTQSPDSLAVSLGERATINCKSSQSLLYSRTRKNYLAWYQQKPGQPPKLLIYWASTRQSGVPDRFSGSGSGTDFTLTISSLQAEDVAVYYCKQSYNLFTFGQGTKLEIKR
notes: human IgG1 kappa
As for B9, in assay [4], the Kd was 0.00818 nM, the koff was found to be 1.63e-05 s⁻¹ and the kon came out at 1.99e+06 M⁻¹ s⁻¹. In assay [5], this molecule registered a Kd of 0.0426 nM, an off-rate constant (koff) of 7.65e-05 s⁻¹ and a kon of 1.79e+06 M⁻¹ s⁻¹.

B10: DOM28h-79 (other)
chain: EVQLLESGGGLVQPGGSLRLSCAASGFTFKNYDMSWVRQAPGKGLEWVSGIWDDGWATYYADSVKGRFTISRDNSKNTLYLQMNSLRAEDTAVYYCAKGAATPGQTIFDYWGQGTLVTVSS
notes: as for B3
With B10, in assay [2], the Kd was determined as 218 nM.

B11: anti-MLC mAb 39-15 purified from the hybridoma (ATCC HB11709) (antibody, mouse IgG1, V domains shown)
VH: QVQLQQSGAELASPGASVKLSCKASGYTFTTYWIHWVKQRPGQGLEWIGAIYPGDGDTRYTQNFKDKATLTADSSSSTAYMQLSSLASEDSAVFYCAREGTPPFTTATFAMAYWGQGTSVTVSS
VL: DIVMSQSPSSLAVSAGDKVTMSCKSSQSLLYSRTRKNYLAWYQQKPGQSPKLLIYWASTRQSGVPDRFTGSGSGTDFTLTISSVQAEDLAVYYCKQSYNLFTFGSGTKLEIKR
notes: mouse IgG1 kappa; also called anti-MLC (Hybridoma)
In assay [6], B11 registered a Kd of 0.0003 nM, a koff of 1.1e-06 s⁻¹ and a kon of 3.5e+06 M⁻¹ s⁻¹. In assay [7], the Kd turned out to be 0.0235 nM, the koff is 3.07e-05 s⁻¹ and the kon is 1.31e+06 M⁻¹ s⁻¹.

B12: DMS5052 (chimeric MLC mAb-cKIT dAb, DOM28m-007) (bispecific antibody)
heavy (part 1 of 2): QVQLQQSGAELASPGASVKLSCKASGYTFTTYWIHWVKQRPGQGLEWIGAIYPGDGDTRYTQNFKDKATLTADSSSSTAYMQLSSLASEDSAVFYCAREGTPPFTTATFAMAYWGQGTSVTVSS
heavy (part 2 of 2): STGEVQLLESGGGLVQPGGSLRLSCAASGFTFSNYAMGWVRQAPGKGLEWVSSISSSGFATYYADSVKGRFTISRDNSKNTLYLQMNSLRAEDTAVYYCAKSESRTFKAFDYWGQGTLVTVSS
light: DIVMSQSPSSLAVSAGDKVTMSCKSSQSLLYSRTRKNYLAWYQQKPGQSPKLLIYWASTRQSGVPDRFTGSGSGTDFTLTISSVQAEDLAVYYCKQSYNLFTFGSGTKLEIKR
notes: not shown: human IgG1 CH1-CH2-CH3
As for B12, the Kd in assay [1] came to 0.047 nM.

B13: DOM28h-54 (other)
chain: EVQLLESGGGLVQPGGSLRLSCAASGFTFESYDMSWVRQAPGKGLEWVSGIYPDGGATYYADSVKGRFTISRDNSKNTLYLQMNSLRAEDTAVYYCAKGEPNLFDYWGQGTLVTVSS
notes: as for B3
As for B13, the Kd in assay [2] stood at 490 nM.

B14: DOM28h-20 (other)
chain: DIQMTQSPSSLSASVGDRVTITCRASRSISDELTWYQQKPGKAPKLLISWGSSLQSGVPSRFSGSGSGTDFTLTISSLQPEDFATYYCLQTWELPVTFGQGTKVEIKR
notes: as for B3
Turning to B14, the Kd in assay [2] is 1000 nM.

B15: DOM28h-7 (other)
chain: DIQMTQSPSSLSASVGDRVTITCRASSNIDDDLGWYQQKPGKAPKLLIGWSSDLQSGVPSRFSGSGSGTDFTLTISSLQPEDFATYYCAQWWRGPATFGQGTKVEIKR
notes: as for B3
On to B15, for which, in assay [2], the Kd was found to be 1400 nM.

B16: DOM28h-26 (other)
chain: DIQMTQSPSSLSASVGDRVTITCRASRNIDDELAWYQQKPGKAPKLLIAWGSDLQSGVPSRFSGSGSGTDFTLTISSLQPEDFATYYCGQFRRGPLTFGQGTKVEIKR
notes: as for B3
B16: in assay [2], the Kd was found to be 621 nM.

B17: DOM28h-66 (other)
chain: EVQLLESGGGLVQPGGSLRLSCAASGFTFPLYEMHWVRQAPGKGLEWVSRISPTGATTYYADSVKGRFTISRDNSKNTLYLQMNSLRAEDTAVYYCAKDRRGRAGVTFDYWGQGTLVTVSS
notes: dAb, C-terminal FLAG tag (pDOM10); also called DOM28h-066
Take B17: the Kd in assay [2] and in assay [3] was 2900 nM throughout.

B18: DOM28h-73 (other)
chain: EVQLLESGGGLVQPGGSLRLSCAASGFTFDDYWMQWVRQAPGKGLEWVSSISDEGARTYYADSVKGRFTISRDNSKNTLYLQMNSLRAEDTAVYYCAEYPGLAHFGEDFDYWGQGTLVTVSS
notes: as for B3
Turning to B18, the Kd in assay [2] turned out to be 1300 nM.

B19: DOM28h-78 (other)
chain: EVQLLESGGGLVQPGGSLRLSCAASGFTFEHYPMGWVRQAPGKGLEWVSHISYDGTDTYYADSVKGRFTISRDNSKNTLYLQMNSLRAEDTAVYYCAKFHNQWDIYSFDYWGQGTLVTVSS
notes: as for B3
Regarding B19, in assay [2], the Kd was 233 nM.
